Assays:
[1] = biological target: T1, CD25 protein (from Example 2); assay: ELISA on coated CD25
T1 chain: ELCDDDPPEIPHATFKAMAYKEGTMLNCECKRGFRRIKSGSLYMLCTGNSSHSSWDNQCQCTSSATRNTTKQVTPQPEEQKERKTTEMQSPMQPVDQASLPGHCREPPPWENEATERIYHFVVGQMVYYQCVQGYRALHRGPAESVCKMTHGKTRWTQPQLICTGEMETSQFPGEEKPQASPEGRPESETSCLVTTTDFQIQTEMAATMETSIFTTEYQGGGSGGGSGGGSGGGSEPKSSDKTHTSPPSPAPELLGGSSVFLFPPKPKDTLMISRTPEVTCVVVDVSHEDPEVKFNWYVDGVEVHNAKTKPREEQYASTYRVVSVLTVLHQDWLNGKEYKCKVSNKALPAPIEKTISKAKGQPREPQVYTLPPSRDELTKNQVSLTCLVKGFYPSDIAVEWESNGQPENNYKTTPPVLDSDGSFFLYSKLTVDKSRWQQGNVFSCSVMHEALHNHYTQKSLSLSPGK
Experimental: (§1) CD25 (from Example 2) was coated on a 96-well high adsorption microtiter plate (3590, Costar), washed and blocked. The sample to be tested was diluted to an appropriate concentration and added to wells.

[2] = biological target: T2, CD25 on the surface of CTLL-2 cells (mouse cytotoxic T lymphocyte cell line) (mouse, UniProt P01590 22-268); assay: cell-based or functional assay
T2 sequence (looked up): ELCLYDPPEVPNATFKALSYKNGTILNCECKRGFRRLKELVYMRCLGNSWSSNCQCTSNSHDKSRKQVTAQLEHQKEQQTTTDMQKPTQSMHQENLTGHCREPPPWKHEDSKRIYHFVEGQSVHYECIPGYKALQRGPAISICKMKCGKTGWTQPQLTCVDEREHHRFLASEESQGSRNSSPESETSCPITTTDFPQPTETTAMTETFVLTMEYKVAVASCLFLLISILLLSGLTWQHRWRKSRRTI

[3] = biological target: T3, CD25 on the surface of NK92 cells (human NK cell line) (human, UniProt P01589 22-272); assay: cell-based or functional assay
T3 sequence (looked up): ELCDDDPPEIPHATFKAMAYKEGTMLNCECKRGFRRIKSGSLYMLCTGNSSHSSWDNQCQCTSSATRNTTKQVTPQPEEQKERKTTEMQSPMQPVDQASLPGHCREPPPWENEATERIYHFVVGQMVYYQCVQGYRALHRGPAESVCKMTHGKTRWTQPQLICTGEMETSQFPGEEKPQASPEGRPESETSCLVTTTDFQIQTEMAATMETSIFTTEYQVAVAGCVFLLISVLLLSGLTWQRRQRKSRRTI

[4] = biological target: T1, CD25 protein (from Example 2); assay: ELISA on coated CD25, sample at 1 ug/ml, relative to rhIL-2 = 100%
Experimental: as §1

[5] = biological target: T1, CD25 protein (from Example 2); assay: ELISA on coated CD25, sample at 0.2 ug/ml, relative to rhIL-2 = 100%
Experimental: as §1

[6] = biological target: T1, CD25 protein (from Example 2); assay: ELISA on coated CD25, sample at 0.04 ug/ml, relative to rhIL-2 = 100%
Experimental: as §1

binding result [1]: no binding (tested: 1 ug/ml)
EC50 (nM), NK92 cell proliferation [3]: 0.306 nM
Potency relative to rhIL-2 (%), NK92 cell proliferation [3]: 1.73%
Binding activity (%) [4]: 0.74%
Binding activity (%) [5]: 0.99%
Binding activity (%) [6]: 1.51%
B1: IL-2qm (T3A, F42A, Y45A, L72G), IgG1-Fc tag (Fc fusion)
chain: APASSSTKKTQLQLEHLLLDLQMILNGINNYKNPKLTRMLTAKFAMPKKATELKHLQCLEEELKPLEEVLNGAQSKNFHLRPRDLISNINVIVLELKGSETTFMCEYADETATIVEFLNRWITFAQSIISTLTEPKSSDKTHTSPPSPAPELEGGSSVFLFPPKPKDTLMISRTPEVTCVVVDVSHEDPEVKFNWYVDGVEVHNAKTKPREEQYASTYRVVSVLTVLHQDWLNGKAYACAVSNKALPAPIEKTISKAKGQPREPQVYTLPPSREEMTKNQVSLTCLVKGFYPSDIAVEWESNGQPENNYKTTPPVLDSDGSFFLYSKLTVDKSRWQQGNVFSCSVMHEALHNHYTQKSLSLSPGK
notes: copies 2 rests on that; also called IL-2qm-Fc; Rocheglicat (CN103492411B)
Potency relative to rhIL-2 (%), CTLL-2 cell proliferation [2]: 0%
